In publication PMC4935545 (Molecular cell, 2016):
Each block holds one molecule with its values, some of them ahead of it.

Tests used:
[1] = molecular target: Strep-tagged Mis18β (human) (UniProt O43482); assay: SEC + other: glycerol gradient sedimentation
MBP-HJURP^R1 (human) [2] = molecular target: MBP-HJURP^R1 (human) (UniProt Q8NCD3); assay: SEC + other: glycerol gradient sedimentation
[3] = molecular target: His-tagged Mis18α (human) (UniProt Q9NYP9); assay: SEC + other: glycerol gradient sedimentation
mCLI-Mis18α (human) = mCLI-Mis18α (human) (UniProt Q9NYP9)
Sequence of mCLI-Mis18α (human) (Q9NYP9 whole entry): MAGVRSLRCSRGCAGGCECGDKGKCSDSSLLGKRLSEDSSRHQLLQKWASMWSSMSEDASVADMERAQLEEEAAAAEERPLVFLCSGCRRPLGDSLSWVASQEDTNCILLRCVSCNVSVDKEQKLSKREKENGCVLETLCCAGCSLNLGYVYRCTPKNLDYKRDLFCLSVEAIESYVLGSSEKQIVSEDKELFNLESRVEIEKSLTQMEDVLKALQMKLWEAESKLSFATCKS

MBP-HJURP^R1 (human) [4] = molecular target: MBP-HJURP^R1 (human) (UniProt Q8NCD3); assay: pull-down
[5] = molecular target: the molecule itself; assay: SEC + other: glycerol gradient sedimentation

Sequence of MBP-HJURP^R1 (human) (Q8NCD3 348-555): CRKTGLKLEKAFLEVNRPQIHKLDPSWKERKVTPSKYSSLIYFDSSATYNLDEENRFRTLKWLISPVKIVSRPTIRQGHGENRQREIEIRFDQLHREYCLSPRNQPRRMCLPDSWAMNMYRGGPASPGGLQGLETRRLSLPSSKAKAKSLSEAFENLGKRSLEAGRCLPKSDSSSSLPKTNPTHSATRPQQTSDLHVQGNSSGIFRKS
Sequence of Strep-tagged Mis18β (human) (O43482 whole entry): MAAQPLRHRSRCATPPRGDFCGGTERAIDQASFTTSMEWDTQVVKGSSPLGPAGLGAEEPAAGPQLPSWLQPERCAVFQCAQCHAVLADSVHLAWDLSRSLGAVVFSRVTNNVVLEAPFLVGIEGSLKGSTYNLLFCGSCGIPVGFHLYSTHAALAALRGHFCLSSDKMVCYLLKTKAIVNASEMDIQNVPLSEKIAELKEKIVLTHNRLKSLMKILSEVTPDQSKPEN

Molecule: His-tagged Mis18α (from UniProt Q9NYP9 1-233) (natural protein)
stoichiometry N [1]: 1 | stoichiometry N (MBP-HJURP^R1 (human) [2]): 1 | stoichiometry N [3]: 2

Molecule: Strep-tagged Mis18β (from UniProt O43482 1-229) (natural protein)
stoichiometry N [1]: 2 | stoichiometry N (MBP-HJURP^R1 (human) [2]): 1

B1: S. pombe Mis18 (recombinant) (natural protein, UniProt Q9P802 1-194, looked up)
chain: MSQTETSHSGYIDFKKESQPSVFQCKKCFQIVGDSNAWVISHREYLSFTLSDAVENSVRVEDTFKRSDDGLCVYSELSCTRCNEVIGKVYNSTPIYLDDIRDMYTFSMDKLQAYQLGNKTVNPEGLTRYQVDLEMREDIIKLKSFCLSLYEKFELHDETLRSVKETISSLKKPKIEGKEGKKEKARTYSKRTRK
stoichiometry N [5]: 4

Other lines, results leading:

percent of transfected cells with recruitment to the array (mCLI-Mis18α (human)): 100%
Molecule: GFP-Mis18β (from UniProt O43482 1-229) (natural protein)

fold binding against Mis18α or Mis18β alone (MBP-HJURP^R1 (human) [4]): 2 fold
Molecule: Mis18α-β heterotetramer (preformed from recombinant Mis18α and Mis18β) (from UniProt Q9NYP9 1-233; O43482 1-229) (complex)
